Assay [1] deals with T1, Latrophilin-3 ADHD-related variant T783M (Lphn3^T783M) (human).
T1 chain: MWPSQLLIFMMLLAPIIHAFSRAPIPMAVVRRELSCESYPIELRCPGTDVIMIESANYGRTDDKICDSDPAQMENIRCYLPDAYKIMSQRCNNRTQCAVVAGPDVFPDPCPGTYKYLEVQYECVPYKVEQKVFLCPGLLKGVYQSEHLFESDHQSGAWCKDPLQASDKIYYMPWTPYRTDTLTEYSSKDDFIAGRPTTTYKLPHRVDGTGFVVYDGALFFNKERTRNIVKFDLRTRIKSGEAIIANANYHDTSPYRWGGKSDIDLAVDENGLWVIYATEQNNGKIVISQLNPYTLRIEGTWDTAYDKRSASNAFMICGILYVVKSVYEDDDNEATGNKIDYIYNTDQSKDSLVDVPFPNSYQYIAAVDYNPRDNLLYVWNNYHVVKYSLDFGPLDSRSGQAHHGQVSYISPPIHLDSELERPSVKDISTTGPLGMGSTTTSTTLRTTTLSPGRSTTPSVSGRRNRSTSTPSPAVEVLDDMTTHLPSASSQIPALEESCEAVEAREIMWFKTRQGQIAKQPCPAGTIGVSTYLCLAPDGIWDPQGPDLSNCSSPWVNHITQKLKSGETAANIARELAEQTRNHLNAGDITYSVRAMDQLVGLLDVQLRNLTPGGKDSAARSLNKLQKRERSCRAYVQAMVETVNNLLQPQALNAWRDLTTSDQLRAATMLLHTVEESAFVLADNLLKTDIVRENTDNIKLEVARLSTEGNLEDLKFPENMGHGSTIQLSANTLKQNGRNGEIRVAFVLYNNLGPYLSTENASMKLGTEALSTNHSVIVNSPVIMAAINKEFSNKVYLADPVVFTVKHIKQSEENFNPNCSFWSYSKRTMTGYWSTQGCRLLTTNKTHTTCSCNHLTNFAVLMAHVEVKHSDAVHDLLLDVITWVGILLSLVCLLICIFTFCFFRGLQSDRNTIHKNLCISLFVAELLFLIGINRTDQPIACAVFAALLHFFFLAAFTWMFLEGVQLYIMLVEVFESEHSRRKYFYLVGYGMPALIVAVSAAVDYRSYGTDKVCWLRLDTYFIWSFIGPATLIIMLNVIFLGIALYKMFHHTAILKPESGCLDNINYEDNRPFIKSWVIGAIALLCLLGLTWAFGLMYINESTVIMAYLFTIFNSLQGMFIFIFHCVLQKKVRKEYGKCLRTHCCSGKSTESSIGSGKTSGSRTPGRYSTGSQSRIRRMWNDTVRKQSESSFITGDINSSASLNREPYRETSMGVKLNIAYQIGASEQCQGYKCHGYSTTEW

Assay [2] addresses T2, Latrophilin-3 ADHD-related variant R465S (Lphn3^R465S) (human).
T2 chain: T1 chain with R465S, M783T

Substitutions are numbered along the chain they refer to.

Broadly, the Kd is the concentration at which binding is half-saturated.

B1: soluble FLRT3 extracellular domain fused to the constant fraction of human IgG (FLRT3^ECD-Fc) (Fc fusion)
chain: KSCPSVCRCDAGFIYCNDRFLTSIPTGIPEDATTLYLQNNQINNAGIPSDLKNLLKVERIYLYHNSLDEFPTNLPKYVKELHLQENNIRTITYDSLSKIPYLEELHLDDNSVSAVSIEEGAFRDSNYLRLLFLSRNHLSTIPWGLPRTIEELRLDDNRISTISSPSLQGLTSLKRLVLDGNLLNNHGLGDKVFFNLVNLTELSLVRNSLTAAPVNLPGTNLRKLYLQDNHINRVPPNAFSYLRQLYRLDMSNNNLSNLPQGIFDDLDNITQLILRNNPWYCGCKMKWVRDWLQSLPVKVNVRGLMCQAPEKVRGMAIKDLNAELFDCKDSGIVSTIQITTAIPNTVYPAQGQWPAPVTKQPDIKNPKLTKDHQTTGSPSRKTITITVKSVTSDTIHISWKLALPMTALRLSWLKLGHSPAFGSITETIVTGERSEYLVTALEPDSPYKVCMVPMETSNLYLFDETPVCIETETAPLRMYNPTTTLNREQEKEPYKNPNLP
modifications: HA/Flag epitopes left out; isoform assumed; signal peptide removed and GPS autoproteolysis expected
Turning to B1, the Kd worked out at 1.22 nM in assay [1] and 1.02 nM in assay [2].

For the origin of these results see article PMC9135631 (2022).
